Laboratory results taken from the DeepSol protein solubility set.

Test: soluble on expression in E. coli; label from the status in PepcDB or PDB records

Soluble on expression in E. coli, soluble:
SKVTSLTACLVDQSLRLDCRHENTSSSPIQYEFSLTRETKKHVLFGTVGVPEHTYRSRTNFTSKYNMKVLYLSAFTSKDEGTYTCALHHSGHSPPISSQNVTVLRDKLVKC
MSLKMTNNTVLITGGSAGIGLELAKRLLELGNEVIICGRSEARLAEAKQQLPNIHTKQCDVADRSQREALYEWALKEYPNLNVLVNNAGIQKEIDFKKGTEELFVDGDEIELNFQAPVHLSALFTPHLMKQPEAAIVQVTSGLAFNPLAVYPVYCATKAALHSFSLTLRHHVRDTSVEVIEMAPPMVDTGLNQKSRDKQGLTYRGISSEEYVQYFLDGLKEGKQEITNERVEGLRDATRADYDRLFEQMNTQEGHHHHHH
MAHHHHHHMFSRGAAATAMAKVSRLVSPRLRIIHRDYLTRRGGRTHQRCSAVAVDYTPTYFATYKSDPGQCPRLIDAEAVHGDEQAFWSARRDFYRGGASRSYYPAWDRQAQALIMLTREVPRIPQEAAFRLFTLGLKMMLLPRLVAGVELMLPSWVTMNAESVLNEGLEGKVAEADGDGKATGAAADAAALPSASSAGANEDSGSANAEKR
MSDVAVAADTTETPAAPTKASKATKASKATKASKATKAKTTKVPMVKADAAHPPFINMVTEAISSIKDRKGPSRAAILKYITTKYTLGDQANKINAHLRKALNKGLESNAFVQASGNGANGRFRLAEKTASVAKSPAAAKKDATGEKKATTTVAKKAATGEKKATTTVAKKAATGEKKATTTVAKKAAAGDKAKKTEVKVKKVKSPKKIAKSPVNKVTKSPVKKIAKSSSMKAAPKKAAAKPAKKAPAAAPEA
GMRQGAGLGYRRDLAEGFLQLRNNDRIQFMEIAPENWIKMGGFARYQFDKVAEKIPILIHGLSLSLGGQAPLDKELLSSIKAMIKQYNTPFFSDHLSFCECDGHLYDLLPMPFTDEAVKHTAARIREVQDFLEIQISVENTSYYLHSETSTMNEVEFLNAIVQEANCGIHLDVNNIYVNAVNHGLLDPHVFIDNVDLKRVNYIHIAGHDDEHAATEVQIQTSESFNKIKGDLRHLPPLLVDTHGENVKGTVWDLLEYTYARLSHMPPTLLERDFNFPPFEKLCKEVDIIHQLQQKYVKKRGLSWLKI

Soluble on expression in E. coli, not soluble:
MKRILIVTGQSGSGKSSALQVLEDLGYYCIDNLPLALLPEIVAKLDHENNLEQLALGVDVRSTRADMQEFDLVFEQLQKHGTVDVIYLTTQDQELIARFSASRRPHPLASRFKSLNECIQEEKQLLLPIQFRSTVHIDTTDKSVHDLKHTLLSKLGQSDKLILILQSFGYKHGIPLDADYVFDVRHLPNPHWDLELRRFSGLDEPVRRFLESSDQTNEMFDDIFHFLDKWLPVFAEGHRHYMTVSIGCTGGQHRSVYIVDRLKKALEAKWSIQVLHREMKHWS
MSVRRLADDVYQPAEFSFTKENQIWVKNTIEKYPVGREQSAVIPLLMRAQEQDGWVTRAAIEHIAQILSMAYIRVLEIATFYTQFQLQPVGTKAHIQVCGTTPCMLRGSEELIKVCQKKIHHKPFVTNQDGSLSWEEVECLGACVNAPMVMIFKDTYEDLTAKRLEEIIDAFEAGKGAEIAVGPQNSRKSSEPISGLTSLIDEKEQKSLKSLKKKDKKEMGA
MAHHHHHHMFYTGINEPRPTAMNFSFDGLHFVSAHTDDAVRFIDVGNMTNTDVIICDAFGVHNVRYTHSSSVVCVAPRFHLDGHLHLLNTETSQFFGEMAYLNDAESEMLPVANTPVYSTLAQCPATDVIGAVVVAKGRLALFHPLISGCIAATPERSIVGSRACVQFSRDGHRIAIGDDHRIVLLDRRSFFGAPLAVLENKHVFTTSTSLTRCKGLEFSADANRLLLTSSSGEVVVYDWLRGETVANYFHGDARRHFVGSADAIGAQHVFPYQSASPILQLTSSMTGGRHLLVYAGCPSNSAASTRQGRLLYELQSKDSDVPVAIAVNPRLQLAATAARSITWWAFHNSVVEAYATLTEAGMTAAD
MSLDLFIPEVAYINPQALKHPLGNEAYQYLKSMGVPIIESNRVSIDTDSPVKNYVKAKKTILLTVSKQKKLQQCKPSADYQFALSSSCPGHCEYCYLQTTQGEKPYMRLFVNIEEILENIQEYMDGNKPNITTFEAASITDPVGLDHITRALEKCITYFGESSHGRLRLVTKFDHVDPYLKLPHNGHTTFRFTINTQWVIKNFEHHTSSAHERVEGAKKIAHANYPLGFIIAPIMLYDHWEKDYKDLLEELSLALKDYEKPIGFEMIQHRFTSKAKDLILQRFPNTKLNLDEESRKLKWGPYGQFKYVYPTEKSDYMRDYLTGLIKDLFPNGRIEYFTEGHHHHHH
MGSDKIHHHHHHMEMDERFKDKWYLVKYKFFSNPFYKDFDVYDSSNNVVFTARMNALNPVTRDIVVYEVNKARSEILLISGKHFIRWPNNFEMTSIATREKIGTFRNGPAGWAVLDEYGRQVAILKRIEDPSGAIMYQIRMDSTSVCEYRFINIITPVIMIDFPDESIFSKKMGIGLALVLGYQSVAFNYTYQGW
MTDKPTYEQTLRGNAIRAISACDLDEKVRLARETASRWFARALSVRSPLDPPLPERPGRPEKPELVPPRMLKKRSLNTEHGRIALMHALAHIELNAIDLALDIVARFAVKPIPRSFFDGWMKVADDEARHFTLLRNRLKSLGADYGDMPAHDGLWQSAHQTRNDLEARLAVVPLILEARGLDVTPSLLEKMIETGDHETAAILNIIYNDEKTHVAVGAKWFRFFCARNRIDPAARFRELVRANFRGELKPPFNELARAEAGLTPSFYRSLSPVSILEHHHHHH
DFFRSAIDQAPSFMAVLDGRDHIFRIVNQAYHQLVGRRDLLNRTVREALPELDGQGFFELLDEVFLTGLAFTRLAAPVLLRRGPEIERSFVDFIMCPLRGPDGQVRGVFVEGHDVT
MPLEASELKPTAGPLEASELKPTAGPLEASELKPTAGPLEASELKPTAGPLEASELKPTAGPLEASELKPTAGPLEASELKPTAGMIVVYVFVYAFKAVKQYFYPSDNLKVLMHKFTDMVNFTINIMIEKNLTSRNSVSNEVYHKLKEYEIPSYYYIEAINKAVALVKTYRKRLKKKQKATVPHVEKPMLSTYYGFKIVGGNIMIPIANREYESIPLNAYVRDATSMVKVHSFALSAYTLSLTIGRDVDAIECTTTVGVDRNLRNITVGNEFHHEIYDLSNIVEIKQRYRKKESHFHRNDRRIREKILSKYGKRERNRVKQIMHETSKAIVSNASTKKEMIVLENIIGINQITKKGDGKGKDYRFLLKNAFPYGMLASQVMYKASWEGLPVIELTRKETRNTSRMCSVCGSLTRIEHGRILKCDSCGLEIDRDVNACINIAFRYRTCLKRSHKGLPGEAVKQSKDVEQMAGSQISMDILEHHHHHH
MGSDKIHHHHHHMELEKIRKLYEKVDPSQLTEREKLLTELIFTDRKLKTDKLPNGRYRILQFSGNNFEELENTLKLLLPDFVKSIGEEKIVIEAFSTDSPTNSELFDIFQTLSQDMGEEVTAYVGRFVEKNKLSEVYSEEYKIFESQQTFSEYILSESLNLSENRILQEIRKELLENPEDQKLVEAMYKASSNQTKAAKILYVHRNTLINKIKKYEQKYGLQLSGSDLTLAYNLL
MGSDKIHHHHHHVVEQSLSVRNGIRHIVWDWNGTLLDDNHANLAAANHVCEMFGVPPMTLEDWRKIFRRPLVPFYEELLGRPLSDEEWQRLDAAYNSYYQRLLPSCRLADGAVDTLHQWRRAGGTQSLLSMAAHDHLVPVITEFGLVSHFTRVDGRQRTTDADSKAEYLAAHLDAQGIDPATVVLIGDIDDDAHAARMVGAKAVLVATGLMSRERLEATGHPVADSLTEAVQLVHG
AFRGLRKGQFFDENALMLIATIAAFFVGAYEESVSIMVFYSAGEFLQKLAVSRSKKSLKALVDVAPNLAYLKKGDELVSVAPEDLRVNDIVVVKVGEKVPVDGVVVKGESLLDERALSGESMPVNVSENSKVLGGSLNLKAVLEIQVEKMYKDSSIAKVVDLVQ
MLYKGCLMKSDVQLNLRAKESQRALIDAAAEILHKSRTDFILETACQAAEKVILDRRVFNFNDEQYEEFINLLDAPVADDPVIEKLLARKPQWDV
